US20260085129A1 (ECO ANIMAL HEALTH, published 2026)

Assays:
pCD163-SRCR-FL-PST2-His = target: T1, pCD163-SRCR-FL-PST2-His (porcine, UniProt Q2VL90 51-1044); assay: Biacore 3000 SPR, antigen amine-coupled on CM5 chip, VHH 200-12.5 nM, pH 7.4, 1:1 binding with mass transfer
T1 construct: also called pCD163-1-PST2-His; pCD163-SRCR1-PST2; not shown: His tag
T1 sequence: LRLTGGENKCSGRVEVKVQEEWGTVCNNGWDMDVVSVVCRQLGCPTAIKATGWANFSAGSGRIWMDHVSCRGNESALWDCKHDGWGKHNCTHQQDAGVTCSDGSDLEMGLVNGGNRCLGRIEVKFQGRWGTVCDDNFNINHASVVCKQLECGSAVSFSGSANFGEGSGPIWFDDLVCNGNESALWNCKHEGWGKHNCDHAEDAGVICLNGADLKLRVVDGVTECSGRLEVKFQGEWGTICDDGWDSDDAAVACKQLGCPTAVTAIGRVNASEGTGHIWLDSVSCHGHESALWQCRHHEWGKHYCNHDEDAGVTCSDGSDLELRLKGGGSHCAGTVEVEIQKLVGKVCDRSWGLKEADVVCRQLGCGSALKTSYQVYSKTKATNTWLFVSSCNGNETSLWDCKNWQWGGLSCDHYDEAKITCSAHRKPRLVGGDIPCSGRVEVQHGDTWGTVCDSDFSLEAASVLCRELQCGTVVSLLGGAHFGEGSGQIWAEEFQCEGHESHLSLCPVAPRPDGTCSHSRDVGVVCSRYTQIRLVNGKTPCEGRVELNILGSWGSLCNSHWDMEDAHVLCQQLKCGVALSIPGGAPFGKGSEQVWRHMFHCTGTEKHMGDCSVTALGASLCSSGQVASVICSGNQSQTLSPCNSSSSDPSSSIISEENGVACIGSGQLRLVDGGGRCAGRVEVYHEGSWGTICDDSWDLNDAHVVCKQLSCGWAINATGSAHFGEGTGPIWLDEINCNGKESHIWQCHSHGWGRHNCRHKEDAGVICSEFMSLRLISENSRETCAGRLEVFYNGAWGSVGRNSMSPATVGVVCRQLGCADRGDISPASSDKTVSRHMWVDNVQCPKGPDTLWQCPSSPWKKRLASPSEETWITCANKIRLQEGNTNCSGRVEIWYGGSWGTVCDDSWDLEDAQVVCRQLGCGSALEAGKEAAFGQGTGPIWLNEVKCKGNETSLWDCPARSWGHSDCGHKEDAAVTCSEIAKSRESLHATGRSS
Experimental: Surface plasmon resonance (SPR) (Biacore 3000, GE Healthcare) was used to determine the binding kinetics of selected single domain antibodies at pH7.4. Approximately 2075 to 2423 RUs of pCD163-SRCR1-9-huFc or 2859 to 3286 RUs of pCD163-1-PST2-His. respectively, at 20 or 30 μg/ml in Acetate buffer pH 5.0 or pH 5.5 were immobilized onto a CM5 chip using the standard amine coupling procedure.
1×HBS-EP pH 7.4, was utilized as a running buffer during binding kinetic measurements. Purified VHH were injected at 2-fold dilution from 200 nM down to 12.5 nM in HBS-EP pH 7.4, at 30 μl/min for 2 minutes, followed by an off-rate wash for 1 min between injections. Off-rate wash was 300s after the last concentration injection in each cycle. RU levels were restored to base levels after regeneration with two injections of 10 μl of 1 M NaCl, 1 mM Glycine pH 1.5 between samples.
Fitting 1:1 binding with mass transfer was applied to the set of sample curves using the simultaneous fitting option of the BIAevaluation software to calculate the kinetic constants of the antibody-antigen interactions including association rate (ka), dissociation rate (kd) and affinity (KD). Curves were removed from the fitting after visual examination of the residuals and considering the value of Chi2: a minimum of 4 curves were considered for the simultaneous fitting.

[1] = target: T2, porcine CD163 with deletion of SRCR domain 5, on pPAMΔ5 cells (porcine, UniProt Q2VL90 47-1115); assay: P.E. binding FACS on pPAMΔ5 cells
T2 construct: also called pPAMΔ5 domain cells; pPAMΔ5 WT cells
T2 sequence: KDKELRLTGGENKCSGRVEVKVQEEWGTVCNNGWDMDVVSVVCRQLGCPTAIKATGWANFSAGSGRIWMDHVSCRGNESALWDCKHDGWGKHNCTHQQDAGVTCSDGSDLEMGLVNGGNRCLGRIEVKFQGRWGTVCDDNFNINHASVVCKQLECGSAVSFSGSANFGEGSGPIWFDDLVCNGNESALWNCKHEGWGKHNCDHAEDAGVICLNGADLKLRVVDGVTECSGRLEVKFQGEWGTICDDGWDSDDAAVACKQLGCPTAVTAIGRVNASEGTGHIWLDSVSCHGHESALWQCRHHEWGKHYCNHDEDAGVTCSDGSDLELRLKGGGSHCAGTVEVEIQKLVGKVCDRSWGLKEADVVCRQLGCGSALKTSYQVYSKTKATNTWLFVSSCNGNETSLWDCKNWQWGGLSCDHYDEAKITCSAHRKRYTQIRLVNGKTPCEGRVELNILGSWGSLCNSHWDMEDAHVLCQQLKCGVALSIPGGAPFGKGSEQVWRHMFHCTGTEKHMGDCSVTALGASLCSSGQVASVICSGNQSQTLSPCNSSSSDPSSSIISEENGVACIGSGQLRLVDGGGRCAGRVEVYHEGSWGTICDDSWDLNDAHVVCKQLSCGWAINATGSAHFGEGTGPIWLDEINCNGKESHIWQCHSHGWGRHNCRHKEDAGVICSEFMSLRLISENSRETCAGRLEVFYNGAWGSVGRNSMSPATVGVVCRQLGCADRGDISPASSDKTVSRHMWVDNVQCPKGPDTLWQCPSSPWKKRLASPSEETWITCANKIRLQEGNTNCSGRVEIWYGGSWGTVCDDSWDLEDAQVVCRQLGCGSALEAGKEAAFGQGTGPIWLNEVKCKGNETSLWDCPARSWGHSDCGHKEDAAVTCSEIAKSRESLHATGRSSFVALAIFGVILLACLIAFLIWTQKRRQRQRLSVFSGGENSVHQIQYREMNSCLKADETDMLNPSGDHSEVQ
Experimental: Periplasmic Extract (P.E) from the selected clones were incubated with anti-c-myc antibody (Roche; Cat. nr. 11667203001), specific to the c-myc tag present in the soluble VHH, for 30 minutes with agitation at room temperature (RT). The mix (P.E+anti-c-myc antibody) was added to the pPAM WT or pPAMΔ5 domain (cells with deletion of SRCR domain 5) and incubated for 60 min at 4° C. with gentle shaking.
Cells were washed 3× with 150 μl/well of FACS Buffer and incubated with 50 μl/well of the secondary antibody GAM-APC for 30 min at 4° C. and protected from the light, with shaking.

B1: Clone 39-H17B11 VHH antibody (VHH)
VHH: QVQLVESGGGLVQAGGSLRLSCAASGRTFSSYAMGWFRQTPGKDREFVARIGWTGGTTIYADSVKGRFTISRDNAKNTVYLQMNSLKPEDTAVYYCAADQAGWRTAGVRNTYEYDYWGQGTQVTVSS
notes: Llama single domain antibody; also called clone 17B11; not shown: tags: c-myc tag on the soluble VHH in periplasmic extracts; FLAG and His tags on the purified VHH
Kd (pCD163-SRCR-FL-PST2-His): 255 µM | koff (pCD163-SRCR-FL-PST2-His): 0.281 s⁻¹ | kon (pCD163-SRCR-FL-PST2-His): 1100 M⁻¹ s⁻¹ | binding result [1]: no binding
